The assay has as its target CDK2 kinase complex (cyclin not given) (UniProt P24941). As to the kind of experiment: cell-based or functional assay.

B1: GST-HPV6b E7 (protein)
chain: MHGRHVTLKDIVLDLQPPDPVGLHCYEQLVDSSEDEVDEVDGQDSQPLKQHFQIVTCCCGCDSNVRLVVQCTETDIREVQQLLLGTLNIVCPICAPKT
B1 gave a CDK2 histone kinase activity, fold activation of 15.8 fold.

These data come from patent US20010029022A1.
